Data set [1] concerns the target T1, PSMA (prostate-specific membrane antigen) extracellular domain (Homo sapiens, UniProt Q04609 SEQ:23-728). In words: filter; dot blot; max bound 52%. The procedure: (§1) Dot Blot Binding Analysis. Dot blot binding assays were performed throughout the selections to monitor the protein binding affinity of the pools. For initial pool screening, trace ³²P-labeled pool RNA was combined with PSMA and incubated at room temperature for 30 min in 1×SHMCK buffer pH 7.4 (20 mM Hepes pH 7.4, 120 mM NaCl, 5 mM KCl, 1 mM MgCl₂, […]) plus 0.1 mg/mL tRNA in a final volume of 30 μl. The mixture was applied to a dot blot apparatus (Schleicher and Schuell Minifold-1 Dot Blot, Acrylic, Keene, N.H.), assembled (from top to bottom) with nitrocellulose, nylon, and gel blot membranes. RNA that is bound to protein is captured on the nitrocellulose filter; whereas the non-protein bound RNA is captured on the nylon filter. […] The Round 9 pool was cloned and screened in a single point dot blot assay using 100 nM PSMA (0 nM PSMA was used as a negative control). Clone transcripts were 5′end labeled with ³²-P ATP. Likely binders were than assayed for KD determination by the blot assay conditions described directly above, but without tRNA, using an 8 point PSMA titration with a constant RNA concentration. […] Both of the clones screened were unique sequences in the Round 9 selection pool.
(§2) In order to identify the core structural elements required for ARC955 binding to PSMA, the 3′-boundaries of the clone was determined through alkaline hydrolysis.

In data set [2] the target is T1, PSMA (prostate-specific membrane …). In words: filter; dot blot; max bound 22%. The procedure: as §1, §2
Data set [3] has the same target. In words: filter; dot blot, 1x SHMCK pH 7.4 (1 mM Mg, Ca), room temp, no tRNA. The conditions noted are these: label: 32P 5'-end.
For data set [4] the target is unchanged. In words: FP filter; dot blot, nitrocellulose; max bound 33%. How it is done: as §1, §2
Data set [5] shares this target. In words: filter; no binding in dot blot. The procedure: as §1, §2
For data set [6] the target is unchanged. In words: filter; dot blot without tRNA. The following applies: hairpin with conserved 16-nt loop, A-rich asymmetric bulge.
Data set [7] has the same target. In words: inhibition; NAALADase inhibition, 40 mM Tris pH 7.4, 0.1 mM ZnSO4, 37 C. The conditions noted are these: hairpin with conserved 16-nt loop, A-rich asymmetric bulge.

For seven molecules, Kd, binding result and IC50 results are on record in patent US20070041901, “Stabilized aptamers to PSMA and their use as prostate cancer therapeutics” (published 2007).

T1 sequence (Q04609 45-750): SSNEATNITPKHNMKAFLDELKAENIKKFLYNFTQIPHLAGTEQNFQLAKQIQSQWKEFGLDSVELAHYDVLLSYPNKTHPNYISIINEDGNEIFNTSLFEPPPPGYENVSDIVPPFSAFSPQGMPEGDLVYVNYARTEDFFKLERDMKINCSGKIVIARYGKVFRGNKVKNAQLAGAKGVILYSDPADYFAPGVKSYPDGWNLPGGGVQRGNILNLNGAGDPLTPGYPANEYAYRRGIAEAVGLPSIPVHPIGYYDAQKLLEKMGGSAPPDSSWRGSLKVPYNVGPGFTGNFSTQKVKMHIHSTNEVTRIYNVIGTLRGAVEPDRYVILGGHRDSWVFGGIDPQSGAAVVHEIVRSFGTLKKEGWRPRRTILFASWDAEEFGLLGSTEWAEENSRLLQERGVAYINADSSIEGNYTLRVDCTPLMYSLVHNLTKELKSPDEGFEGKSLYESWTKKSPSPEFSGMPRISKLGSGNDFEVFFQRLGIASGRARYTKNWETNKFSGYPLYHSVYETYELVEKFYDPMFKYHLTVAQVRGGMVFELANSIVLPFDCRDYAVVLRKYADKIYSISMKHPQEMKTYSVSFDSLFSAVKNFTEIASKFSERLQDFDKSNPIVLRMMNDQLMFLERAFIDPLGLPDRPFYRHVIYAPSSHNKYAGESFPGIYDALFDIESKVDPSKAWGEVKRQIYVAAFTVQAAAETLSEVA

B1: ARC1091 (ssRNA)
RNA: AGAGGAGAGAACGUUCUACUAUGGGUGGCUGGGAGGGG
modifications: 2'-OMe A, C, U; 2'-OH G (rGmH)
The term Kd denotes a measure of binding affinity in units of concentration. High values mean weaker binding, low ones tighter binding. B1 showed a Kd in data set [1] of 3.1 nM.

B2: ARC1089 (ssRNA)
RNA: CUACUGGGUGGCUGGGAGGGGAAGAGGGAGUAG
modifications: 2'-OMe A, C, U; 2'-OH G (rGmH)
As to B2, the Kd in data set [2] stood at 9.3 nM.

B3: ARC956 (G8) (ssRNA)
RNA: GGGGAGAGGAGAGAACGUUCUACACAUGGGUCGGGUGAGUGGCAAAGGAAUAGGUCGAUCGAUCGAUCAUCGAUG
modifications: 2'-OMe A, C, U; 2'-OH G (rGmH)
With B3, the equilibrium dissociation constant (Kd) in data set [3] turned out to be 16 nM.

B4: ARC955 (G2) (ssRNA)
RNA: GGGAGAGGAGAGAACGUUCUACUAUGGGUGGCUGGGAGGGGAAGAGGGAGUAGGUCGAUCGAUCGAUCAUCGAUG
modifications: 2'-OMe A, C, U; 2'-OH G (rGmH)
The molecule B4 returned a Kd in data set [3] of 9 nM.

B5: ARC1088 (ssRNA)
RNA: GGGUGGCUGGGAGGGGAAGAGGG
modifications: 2'-OMe A, C, U; 2'-OH G (rGmH)
In data set [4], B5 yielded an equilibrium dissociation constant (Kd) of 2.1 nM.

B6: ARC725 (ssRNA)
RNA: CUACUACACAUGGGUCGGGUGAGUGGCAAAGGAAUAGUAG
modifications: 2'-OMe A, C, U; 2'-OH G (rGmH)
On to B6, for which the binding result in data set [5] is reported as “no binding”.

B7: ARC591 (ssRNA)
RNA: GGAGGACCGAAAAAGACCUGACUUCUAUACUAAGUCUACGUUCCUCCA
modifications: 2'-F C and U; 2'-OH A and G
Broadly, the IC50 is the concentration that gives 50% inhibition. High values mean lower potency, low ones higher potency. In the case of B7, binding in data set [6] was characterised by a dissociation constant (Kd) of 3.4 nM. In addition, the IC50 in data set [7] is 6.7 nM.
